The values below come from patent US20260210939A1, “MODIFIED OLFACTORY RECEPTORS” (GIVAUDAN SA, priority 2022, published 2026).

Read-outs that look alike come from different tables or passages of the source.

In one experiment the target is T1, OR2T4 (Homo sapiens, UniProt Q8NH00, D328E/G331D/M330K).
T1 sequence (Q8NH00 with tags, fused parts or gaps D328E/M330K/G331D): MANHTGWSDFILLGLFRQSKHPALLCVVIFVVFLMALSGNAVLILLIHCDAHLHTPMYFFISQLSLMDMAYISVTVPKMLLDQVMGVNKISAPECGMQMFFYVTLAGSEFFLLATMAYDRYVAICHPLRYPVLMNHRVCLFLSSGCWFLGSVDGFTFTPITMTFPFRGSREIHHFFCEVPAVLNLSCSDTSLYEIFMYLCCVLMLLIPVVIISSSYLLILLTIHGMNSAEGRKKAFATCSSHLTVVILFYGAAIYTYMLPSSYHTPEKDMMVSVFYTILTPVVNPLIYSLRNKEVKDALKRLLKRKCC
Particulars: for ligand identification in sulfur odorant screen: OR2T4 with optimized C-terminus SEQ ID NO: 86; for % of the activation by the optimized sequence RNKEVKDALKRLLKRKCC: OR2T4 variant.

A further experiment deals with T2, OR5B12 (Homo sapiens, UniProt Q96R08, C141R).
T2 construct: Improved functional expression of modified OR-genes containing the truncated, optimized C-terminus; expressed in transfected cells; host or cells: HEK293T stably expressing human RTP1S(V227I) and RTP2(L220R)
T2 sequence (Q96R08 with tags, fused parts or gaps C141R): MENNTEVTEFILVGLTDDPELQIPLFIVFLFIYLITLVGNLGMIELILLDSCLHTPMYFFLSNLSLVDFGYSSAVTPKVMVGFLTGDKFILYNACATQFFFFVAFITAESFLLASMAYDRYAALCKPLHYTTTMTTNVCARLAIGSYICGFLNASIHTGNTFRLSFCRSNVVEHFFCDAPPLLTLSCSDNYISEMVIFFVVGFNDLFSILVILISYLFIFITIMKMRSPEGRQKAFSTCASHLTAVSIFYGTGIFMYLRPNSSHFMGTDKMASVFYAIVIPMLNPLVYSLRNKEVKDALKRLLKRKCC
As to the kind of experiment: CRE-luciferase assay, HEK293T cells expressing OR5B12 (wild-type / modified C-terminus). The format is cell-based. Particulars: OR5B12 variant.

For the next experiment, the target named is T3, OR7C1 (Homo sapiens, UniProt O76099, D296E/G302K/M297V/R299D/T295K/V126I).
T3 construct: Improved functional expression of modified OR-genes containing the truncated, optimized C-terminus; expressed in transfected cells; host or cells: HEK293T stably expressing human RTP1S(V227I) and RTP2(L220R)
T3 sequence (O76099 with tags, fused parts or gaps V126I/T295K/D296E/M297V/R299D/G302K): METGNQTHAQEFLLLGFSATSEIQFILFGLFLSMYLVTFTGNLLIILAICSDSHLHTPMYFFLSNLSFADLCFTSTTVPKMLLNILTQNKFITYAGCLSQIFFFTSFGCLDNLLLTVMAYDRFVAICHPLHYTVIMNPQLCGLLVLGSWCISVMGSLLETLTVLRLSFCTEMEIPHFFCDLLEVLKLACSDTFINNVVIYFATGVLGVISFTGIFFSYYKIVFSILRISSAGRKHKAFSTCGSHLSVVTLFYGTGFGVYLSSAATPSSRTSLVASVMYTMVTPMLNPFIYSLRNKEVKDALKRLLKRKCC
As to the kind of experiment: CRE-luciferase assay, HEK293T cells expressing OR7C1 (wild-type / modified C-terminus). It counts as cell-based. Particulars: OR7C1 variant, 1 μM Ambermax. From the text:
To test for possible variants of the sequence […]CC (SEQ ID NO: 86) leading to similar improved functional expression, different point mutations were introduced into the first 16 amino acids of this sequence (corresponding to […], SEQ ID NO: 10) and the variants were fused after the TM7 with OR7C1. […] The test concentrations were selected to fall into the range of partial activity of the wild-type sequence.

The mark [1] stands for this setting: 10 μM Cyclopentanethiol, 30 μM copper.
Setting [2] is: 31 μM Cyclopentanethiol, 30 μM copper.
[3] abbreviates: 4 μM 2-methyl-3-tetrahydrofuranethiol.
[4] abbreviates: 8 μM 2-methyl-3-tetrahydrofuranethiol.

Consider `CC1OCCC1S` (stereo not shown) [2-methyl-3-tetrahydrofuranthiol, reference compound], for which the “ligand identification in sulfur odorant screen” value on OR2T4 is “good ligands”.

On to `CCCSSCCC` [dipropyl disulfide, reference compound], for which the “ligand identification in sulfur odorant screen” value on OR2T4 was “good ligands”.

As for “SEQ ID NO: 10 (RNKEVKDALKRLLKRK; source 1..16: note = C-terminal domain sequence)”, the “% of the activation by the optimized sequence RNKEVKDALKRLLKRKCC” value (from here on “% of the activation”) is 0% in the experiment with OR5B12 (31 μM Hedione HC); 0% with OR5B12 (62.5 μM Hedione HC); 89.5% with OR7C1; 25.3% with OR2T4 (setting [1]); 25.2% with OR2T4 (setting [2]).

Take “SEQ ID NO: 114 (RNKEVKRAIKRLLKRKCC; source 1..18: note = C-terminal domain sequence)”: the “% of the activation” value was found to be 317.8% with OR5B12 (31 μM Hedione HC); 195.1% with OR5B12 (62.5 μM Hedione HC); 262.4% with OR7C1; 108.8% with OR2T4 (setting [3]); 116.6% with OR2T4 (setting [4]).

As to “SEQ ID NO: 115 (RNKEVKKAIKRLLKRKCC; source 1..18: note = C-terminal domain sequence)”, the “% of the activation” value in the experiment with OR5B12 (31 μM Hedione HC) turned out to be 349.2%; with OR5B12 (62.5 μM Hedione HC), 242.5%; with OR2T4 (setting [3]), 103.1%; in the experiment with OR2T4 (setting [4]) it was 115.2%.

With “SEQ ID NO: 116 (RNKEVKRAIKRLFKRKCC; source 1..18: note = C-terminal domain sequence)”, the “% of the activation” value turned out to be 433.2% with OR5B12 (31 μM Hedione HC); 303.9% in the experiment with OR5B12 (62.5 μM Hedione HC); 393.9% with OR7C1; 63.3% in the experiment with OR2T4 (setting [3]); 77.0% with OR2T4 (setting [4]).

“SEQ ID NO: 118 (RNKEVKRAIRKLLKRKCC; source 1..18: note = C-terminal domain sequence)”: the “% of the activation” value amounted to 126.2% with OR5B12 (31 μM Hedione HC); 136.1% with OR5B12 (62.5 μM Hedione HC); 288.9% with OR7C1; 80.6% with OR2T4 (setting [3]); 98.4% with OR2T4 (setting [4]).

As for “SEQ ID NO: 121 (RNKEVKRAIKRLLKRKCR; source 1..18: note = C-terminal domain sequence)”, the “% of the activation” value with OR5B12 (31 μM Hedione HC) turned out to be 342.8%; with OR5B12 (62.5 μM Hedione HC) it was 242.1%; in the experiment with OR7C1, 346.4%; with OR2T4 (setting [3]), 139.9%; with OR2T4 (setting [4]), 150.6%.

With “SEQ ID NO: 122 (RNKEVKKAIKRLLKRKCR; source 1..18: note = C-terminal domain sequence)”, the “% of the activation” value with OR5B12 (31 μM Hedione HC) is recorded as 331.3%; with OR5B12 (62.5 μM Hedione HC), 222.3%; in the experiment with OR7C1, 258.8%; with OR2T4 (setting [3]) it was 97.3%; with OR2T4 (setting [4]), 102.0%.

Regarding “SEQ ID NO: 133 (RNKEVKDALKRLLKRKCRR; source 1..19: note = C-terminal domain sequence)”, the results for the “% of the activation” value with OR7C1, with OR2T4 (setting [3]) and with OR2T4 (setting [4]) were 188.9%, 101.4% and 110.0%, respectively.

With “SEQ ID NO: 146 (RNKEVKDALKRLLKRKCCR; source 1..19: note = C-terminal domain sequence)”, the “% of the activation” value with OR5B12 (31 μM Hedione HC) stood at 619.88%; in the experiment with OR5B12 (62.5 μM Hedione HC) it was 248.52%.

As to “SEQ ID NO: 147 (RNKEVKDALKRLLKRKCCG; source 1..19: note = C-terminal domain sequence)”, the “% of the activation” value with OR5B12 (31 μM Hedione HC) is recorded as 394.57%; with OR5B12 (62.5 μM Hedione HC), 300.08%.

“SEQ ID NO: 148: printed for RNKEVKDALKRLLKRKCRR in Table 6”: the “% of the activation” value with OR5B12 (31 μM Hedione HC) amounted to 181.2%; with OR5B12 (62.5 μM Hedione HC), 189.0%.

“SEQ ID NO: 149 (RNKEVKDALKRLLKRKCRRR; source 1..20: note = C-terminal domain sequence)”: the “% of the activation” value is given as 254.8% with OR5B12 (31 μM Hedione HC); 231.7% in the experiment with OR5B12 (62.5 μM Hedione HC); 265.3% with OR7C1; 108.0% with OR2T4 (setting [3]); 135.7% with OR2T4 (setting [4]).

On to “SEQ ID NO: 150 (RNKEVKDALKRLLKRKCRKK; source 1..20: note = C-terminal domain sequence)”, for which the “% of the activation” value with OR5B12 (31 μM Hedione HC) is given as 182.3%; with OR5B12 (62.5 μM Hedione HC) it was 145.7%; with OR7C1, 196.0%; with OR2T4 (setting [3]) it was 94.8%; in the experiment with OR2T4 (setting [4]), 96.5%.

Take “SEQ ID NO: 151 (RNKEVKDALKRLLKRKCCRR; source 1..20: note = C-terminal domain sequence)”: the “% of the activation” value with OR5B12 (31 μM Hedione HC) is given as 240.6%; with OR5B12 (62.5 μM Hedione HC) it was 229.5%.

On to “SEQ ID NO: 198 (RNKEVKDALKRLLKRKC; source 1..17: note = C-terminal domain sequence)”, for which the “% of the activation” value in the experiment with OR5B12 (31 μM Hedione HC) came to 0%; in the experiment with OR5B12 (62.5 μM Hedione HC) it was 0%; in the experiment with OR7C1 it was 137.7%; in the experiment with OR2T4 (setting [1]) it was 37.7%; with OR2T4 (setting [2]), 63.5%.

Take “SEQ ID NO: 219 (RNKEVKDALKRLLKRKCCRRRR; source 1..22: note = C-terminal domain sequence)”: the “% of the activation” value with OR5B12 (31 μM Hedione HC) is recorded as 244.3%; with OR5B12 (62.5 μM Hedione HC), 239.6%.

As to “SEQ ID NO: 220 (RNKEVKKAIKRLLKRKCCRRR; source 1..21: note = C-terminal domain sequence)”, the “% of the activation” value in the experiment with OR5B12 (31 μM Hedione HC) is 1092.9%; with OR5B12 (62.5 μM Hedione HC) it was 922.2%; with OR2T4 (setting [3]) it was 76.6%; in the experiment with OR2T4 (setting [4]), 61.9%.

Regarding “SEQ ID NO: 221 (RNKEVKKAIKRLFKRKCCRRR; source 1..21: note = C-terminal domain sequence)”, the “% of the activation” value with OR5B12 (31 μM Hedione HC) stood at 1032.2%; with OR5B12 (62.5 μM Hedione HC), 676.0%; with OR7C1 it was 498.6%; in the experiment with OR2T4 (setting [3]) it was 103.1%; with OR2T4 (setting [4]), 130.4%.
